According to the Immune Epitope Database (IEDB):

Experiments:
HLA-A*03:01 = experiment: IEDB peptide-MHC binding, purified MHC/direct/fluorescence; filed as Kd, often an IC50 or EC50 that approximates it; ≥ and ≤ were set here for values at or beyond the usual limits of such assays
HLA-B*51:01 = experiment: IEDB peptide-MHC binding, purified MHC/competitive/radioactivity; filed as Kd, often an IC50 or EC50 that approximates it; ≥ and ≤ were set here for values at or beyond the usual limits of such assays
HLA-B*58:01 = experiment: IEDB peptide-MHC binding, purified MHC/direct/fluorescence; filed as Kd, often an IC50 or EC50 that approximates it; ≥ and ≤ were set here for values at or beyond the usual limits of such assays; conditions: source organism: Pseudomonas aeruginosa
HLA-A*02:01 [1] = experiment: as above
HLA-A*69:01 = experiment: as above
HLA-A*11:01 = experiment: as above
HLA-B*15:01 = experiment: as above
HLA-A*02:02 = experiment: IEDB peptide-MHC binding, purified MHC/competitive/radioactivity; filed as Kd, often an IC50 or EC50 that approximates it; ≥ and ≤ were set here for values at or beyond the usual limits of such assays
HLA-A*02:06 = experiment: as above
HLA-A*02:03 = experiment: as above
HLA-B*07:02 = experiment: IEDB peptide-MHC binding, purified MHC/direct/fluorescence; filed as Kd, often an IC50 or EC50 that approximates it; ≥ and ≤ were set here for values at or beyond the usual limits of such assays
HLA-B*40:01 = experiment: as above
HLA-A*01:01 = experiment: as above; conditions: source organism: Homo sapiens
HLA-A*02:01 [2] = experiment: IEDB peptide-MHC binding, purified MHC/competitive/fluorescence; filed as Kd, often an IC50 or EC50 that approximates it; ≥ and ≤ were set here for values at or beyond the usual limits of such assays; conditions: source organism: Vaccinia virus
[3] = source organism: Dengue virus 3 Martinique/1243/1999
[4] = source organism: Cryptosporidium hominis
[5] = source organism: Francisella tularensis subsp. holarctica LVS
[6] = source organism: Vibrio vulnificus
[7] = source organism: Vaccinia virus WR
[8] = source organism: Dengue virus 1 Brazil/97-11/1997
[9] = source organism: Campylobacter jejuni RM1221
[10] = source organism: Mammarenavirus whitewaterense
[11] = source organism: SARS coronavirus Tor2
[12] = source organism: Mammarenavirus guanaritoense
[13] = source organism: Dengue virus 2 Jamaica/1409/1983

Row | Sequence | Kd (HLA-A*02:02; [7]) [nM] | Kd (HLA-A*02:06; [7]) [nM] | Kd (HLA-A*02:03; [7]) [nM] | other results
1 | HLALTCILK |  |  |  | Kd (HLA-A*03:01; source organism: Salmonella enterica subsp. enterica serovar Typhi): 123 nM
2 | VAWRTATLI |  |  |  | Kd (HLA-B*51:01; [3]): 137 nM
3 | KGGEAQFLV |  |  |  | Kd (HLA-B*58:01): 738 nM
4 | SGFGGETPV |  |  |  | Kd (HLA-A*02:01 [1]; [4]): 863 nM; Kd (HLA-A*69:01; [4]): 13500 nM
5 | KLYSYGIGY |  |  |  | Kd (HLA-A*11:01; [5]): 75.4 nM; Kd (HLA-A*03:01; [5]): 1.4 nM
6 | HLAGFIHAC |  |  |  | Kd (HLA-A*02:01 [1]; [6]): 21.5 nM; Kd (HLA-B*15:01; [6]): 2280 nM
7 | DMICCDSRIV | 11300 | 18900 | 6080 | 
8 | LPEEQDQNYV |  |  |  | Kd (HLA-B*51:01; [3]): 11900 nM
9 | LLNMRDLIV | 665 | 225 | 1.23 | 
10 | IASKINNNRI | 732 | 9420 | 18500 | 
11 | FGCKPLTMFL |  |  |  | Kd (HLA-B*51:01; [8]): ≥ 35100 nM
12 | AARHKHQVM |  |  |  | Kd (HLA-B*07:02; source organism: Danio rerio): 64.8 nM
13 | EEFCDMLRL |  |  |  | Kd (HLA-B*40:01; source organism: Mammarenavirus lassaense): 255 nM
14 | GIYHDICEI |  |  |  | Kd (HLA-A*02:01 [1]; [9]): 162 nM; Kd (HLA-A*69:01; [9]): ≥ 20000 nM
15 | FSAVISGSV |  |  |  | Kd (HLA-A*02:02; [10]): 48.2 nM; Kd (HLA-A*02:06; [10]): 161 nM; Kd (HLA-A*02:03; [10]): 14100 nM
16 | MAFDISVNA | 191 | 13.2 | 15.1 | 
17 | NQGNILMDSI | 3930 | 3090 | 4040 | 
18 | VIVVPVIDRL | 4570 | 11100 | ≥ 59000 | 
19 | VQLPKRGVRV | ≥ 33700 | 41.3 | 2210 | 
20 | WLGAAITLVV | 19.7 | 1840 | 78.4 | 
21 | YIKDLKHAT | 18500 | ≥ 39400 | ≥ 78100 | 
22 | RRRPVTRPL |  |  |  | Kd (HLA-B*07:02; source organism: Candidatus Solibacter): 3.4 nM
23 | CVDHPFIYVI | 964 | 1610 | 10800 | 
24 | QLMCQPILLL |  |  |  | Kd (HLA-A*02:02; [11]): 92.3 nM; Kd (HLA-A*02:06; [11]): 325 nM; Kd (HLA-A*02:03; [11]): 217 nM
25 | GIIITVGML | 8670 | 18400 | 349 | 
26 | FSLGILCVSI |  |  |  | Kd (HLA-A*02:06; [8]): 3.63 nM; Kd (HLA-B*51:01; [8]): ≥ 39500 nM
27 | DSDGSFFLY |  |  |  | Kd (HLA-A*01:01): 25 nM; Kd (HLA-A*11:01; source organism: Homo sapiens): ≥ 20600 nM; Kd (HLA-A*69:01; source organism: Homo sapiens): ≥ 25100 nM

Row | Sequence | Kd (HLA-A*02:02; [7]) [nM] | Kd (HLA-A*02:06; [7]) [nM] | Kd (HLA-A*02:03; [7]) [nM] | other results
28 | DQLVFNSISA | 206 | 759 | 289 | 
29 | VPGLPGTVL |  |  |  | Kd (HLA-A*11:01; source organism: SARS-CoV1): 4550 nM; Kd (HLA-B*07:02; source organism: SARS-CoV1): 91.5 nM
30 | SVKEDLVAY |  |  |  | Kd (HLA-B*15:01; source organism: Yellow fever virus 17D): 95.5 nM
31 | MLKLFTHDIM | 84.6 | ≥ 20300 | 93.1 | 
32 | KQNKFGDSPL | 89.6 | 5080 | 216 | 
33 | LINLVQYRIL | 2120 | 15900 | 2250 | 
34 | QAKKPEVRI | 738 | ≥ 41900 | 6570 | 
35 | EEFFCVHGM |  |  |  | Kd (HLA-B*40:01; source organism: Mycobacterium tuberculosis): 167 nM
36 | KISNTTFEV |  |  |  | Kd (HLA-A*02:01 [2]): 1.9 nM
37 | ELAYYNSCML | 1870 | 3570 | 151 | 
38 | FMNDLQVSR |  |  |  | Kd (HLA-A*02:02; [12]): 249 nM; Kd (HLA-A*02:06; [12]): ≥ 33600 nM; Kd (HLA-A*02:03; [12]): 914 nM
39 | KLLNMRDLIV | 194 | 2.77 | 29.4 | 
40 | HLENDKIEDL | 526 | 10600 | 414 | 
41 | DVNSVQFSIL | 2270 | 3400 | 1660 | 
42 | TLFGRGVIDT | 199 | 3310 | 95.6 | 
43 | VPLAGPMVA |  |  |  | Kd (HLA-B*51:01; source organism: Dengue virus 4 Philippines/H241/1956): 17000 nM
44 | FKLTYQNKVV |  |  |  | Kd (HLA-B*51:01; [13]): ≥ 60000 nM
45 | VLSLIGLKR |  |  |  | Kd (HLA-A*11:01; source organism: West Nile virus): ≥ 20000 nM
46 | YAQIQPHWI |  |  |  | Kd (HLA-B*51:01; [13]): 1080 nM
47 | WAYHGSYEV |  |  |  | Kd (HLA-A*02:06; [8]): 24.5 nM; Kd (HLA-B*51:01; [8]): 11.1 nM
48 | FVNFVKDMI | 55.2 | 229 | 124 | 
49 | LVIRNEVNDT | 5500 | 2170 | 15200 | 
50 | HQRRLVKLL | 15900 | ≥ 21300 | 1680 | 
51 | PLKDVERLQM | 6160 | ≥ 37300 | ≥ 44000 | 
52 | DLNIFMTLV | 1910 | 2190 | 556 | 
53 | LEKTHNGKL |  |  |  | Kd (HLA-B*40:01; source organism: Influenza A virus (A/RI/5-/1957(H2N2))): 124 nM
